Target: T1, human transferrin receptor extracellular domain with hexahistidine-myc-myc tag (REGN2431) (human, UniProt P02786 89-760)
T1 construct: also called hTFR-mmh; hmm.hTfRC
Test: blocking ELISA: supernatant pre-mixed with 300 pM Hmm-hTFRC, hTFRC bound to immobilized human holo-Tf read
Method: In the blocking assay, the anti-human Transferrin goat IgG polyclonal antibody (anti-hTf pAb) was passively absorbed at a concentration of 2 micrograms/mL in PBS on a 96-well microtiter plate overnight at 4° C. […] To the same plate, human holo-Tf was then added at a concentration of 1 micrograms/mL in PBS+0.5% BSA for 2 hours at room temperature. […] After a 1-hour incubation, the mixtures were transferred to the human holo-Tf microtiter plates. […] The plates were developed using TMB substrate solution according to the manufacturer's recommended procedure and absorbance at 450 nm was measured on a Victor™ Multilabel Plate Reader.
The ability of the anti-TfR antibody to block human TFRC binding to human holo-Tf was evaluated using an ELISA-based blocking assay.

T1 sequence (P02786 other isoform, or with tags, fused parts or gaps): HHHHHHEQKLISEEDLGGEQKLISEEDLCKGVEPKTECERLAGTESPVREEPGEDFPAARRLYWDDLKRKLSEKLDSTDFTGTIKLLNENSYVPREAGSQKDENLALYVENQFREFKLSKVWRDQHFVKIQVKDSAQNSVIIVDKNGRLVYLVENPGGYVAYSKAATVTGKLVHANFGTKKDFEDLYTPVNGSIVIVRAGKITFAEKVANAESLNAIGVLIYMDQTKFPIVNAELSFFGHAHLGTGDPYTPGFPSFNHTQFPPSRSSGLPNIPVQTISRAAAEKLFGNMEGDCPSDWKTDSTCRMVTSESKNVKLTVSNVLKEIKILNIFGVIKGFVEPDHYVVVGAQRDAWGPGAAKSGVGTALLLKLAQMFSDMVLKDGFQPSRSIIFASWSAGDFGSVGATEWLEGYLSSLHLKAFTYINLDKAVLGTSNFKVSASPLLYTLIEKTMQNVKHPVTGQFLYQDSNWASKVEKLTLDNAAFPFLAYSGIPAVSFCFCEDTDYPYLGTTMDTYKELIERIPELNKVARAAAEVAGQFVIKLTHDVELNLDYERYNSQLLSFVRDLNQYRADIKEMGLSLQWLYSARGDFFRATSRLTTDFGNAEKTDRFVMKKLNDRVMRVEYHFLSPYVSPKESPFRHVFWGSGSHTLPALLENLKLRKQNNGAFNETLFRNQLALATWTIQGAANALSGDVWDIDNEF

% Blocking: 0%
B1: 69348 anti-hTfR scFv (VH-VK) (scFv)
scFv: QVQLVESGGGVVQPGRSLRLSCAASGFTFTTYGMHWVRQAPGKGLEWVAVIWYDGSNKYYGDSVKGRFTISRDNSKNTLYLQMNSLRVDDTAVYYCTRTHGYTRSSDGFDYWGQGTLVTVSSGGGGSGGGGSGGGGSDIQMTQSPSSLSASVGDRVTITCRASQSIRNVLGWFQQKPGKAPQRLIYAASSLQSGVPSRFSGSGSGTEFTLTISSLQPEDFATYYCLQHNFYPLTFGGGTKVEIK
notes: also called 69348 scFv (VH - VK) Format

Reference: patent publication US20240052051A1 (Regeneron, published 2024)
